US20210253718A1, “FRIZZLED5 PROTEIN-BINDING AGENTS” (Modmab Therapeutics Corporation, priority 2016, published 2021)

Experiments:
[1] = system: CHO cells not expressing Frizzled CRD; test: Flow cytometry of anti-FZD5 Fab binding to CHO cells not expressing Frizzled CRD (background)
Excerpt: The binding of anti-FZD5 Fabs to cell surface-expressed Frizzled protein was further determined for each member of the Frizzled family via flow cytometry and immunofluorescence analysis of a panel of 10 CHO cell lines, each ectopically over-expressing the extracellular cysteine-rich domain (CRD) of a different Frizzled protein family member.

[2] = biological target: T1, FZD3 CRD (Homo sapiens, UniProt Q9NPG1); test: Immunofluorescence of anti-FZD5 Fab binding to CHO cells overexpressing Frizzled CRD; design: key: −: no binding; +: very weak binder; ++: weak binder; +++: good binder; ++++: very good binder
T1 construct: CRD of FZD1, FZD2, FZD3, FZD4, FZD5, FZD6, FZD7, FZD8, FZD9 or FZD10; GPI anchor signal (C); expressed in transfected cells; host or cells: CHO cells, lentiviral pLenti-puro
T1 sequence (Q9NPG1 23-136 limits assumed): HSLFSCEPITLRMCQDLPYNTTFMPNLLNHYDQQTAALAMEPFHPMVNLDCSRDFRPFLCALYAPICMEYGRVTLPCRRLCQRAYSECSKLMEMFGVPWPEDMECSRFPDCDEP
In short: (§1)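 CHO lines each stably expressing one human Frizzled CRD as a myc-tagged, GPI-anchored cell-surface cassette (FZD_CRD-MYC-GPI, lentiviral pLenti-puro) were probed with anti-FZD5 Fabs. Binding was read by immunofluorescence, alongside flow cytometry, across the 10-member panel.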

[3] = biological target: T2, FZD1 CRD (Homo sapiens, UniProt Q9UP38); test: as above; design: key: −: no binding; +: very weak binder; ++: weak binder; +++: good binder; ++++: very good binder
T2 construct: D112-P238; GPI anchor signal (C); expressed in transfected cells; host or cells: CHO cells, lentiviral pLenti-puro
In short: as §1

[4] = biological target: T3, FZD4 CRD (Homo sapiens, UniProt Q9ULV1); test: as above; design: key: −: no binding; +: very weak binder; ++: weak binder; +++: good binder; ++++: very good binder
T3 construct: E42-V167; GPI anchor signal (C); expressed in transfected cells; host or cells: CHO cells, lentiviral pLenti-puro
T3 sequence (Q9ULV1 42-167): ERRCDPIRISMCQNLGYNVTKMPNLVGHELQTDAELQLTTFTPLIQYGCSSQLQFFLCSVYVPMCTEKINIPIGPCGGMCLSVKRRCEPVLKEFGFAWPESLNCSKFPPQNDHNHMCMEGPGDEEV
In short: as §1

[5] = biological target: T4, FZD7 CRD (Homo sapiens, UniProt O75084); test: as above; design: key: −: no binding; +: very weak binder; ++: weak binder; +++: good binder; ++++: very good binder
T4 construct: D45-S169; GPI anchor signal (C); expressed in transfected cells; host or cells: CHO cells, lentiviral pLenti-puro
In short: as §1

[6] = biological target: T5, FZD5 CRD (Homo sapiens, UniProt Q13467); test: as above; design: key: −: no binding; +: very weak binder; ++: weak binder; +++: good binder; ++++: very good binder
T5 construct: K29-T156; GPI anchor signal (C); expressed in transfected cells; host or cells: CHO cells, lentiviral pLenti-puro
T5 sequence (Q13467 29-156): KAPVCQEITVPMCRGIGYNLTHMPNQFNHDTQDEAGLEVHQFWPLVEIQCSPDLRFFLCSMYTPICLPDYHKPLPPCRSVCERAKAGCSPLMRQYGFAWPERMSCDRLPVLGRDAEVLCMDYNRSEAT
In short: as §1

Molecule	Median fluorescence, Frizzled CRD overexpressed on CHO cells: None [1]	Immunofluorescence binding, Frizzled CRD overexpressed on CHO cells: FZD3 [2]	Immunofluorescence binding, Frizzled CRD overexpressed on CHO cells: FZD1 [3]	Immunofluorescence binding, Frizzled CRD overexpressed on CHO cells: FZD4 [4]	Immunofluorescence binding, Frizzled CRD overexpressed on CHO cells: FZD7 [5]	Immunofluorescence binding, Frizzled CRD overexpressed on CHO cells: FZD5 [6]
Fab-2919: anti-FZD5 Fab with antibody variable region Fv-2919; CDR SEQ ID NOs: 35, 36, 58, 97, 134, 155 (antibody, V domains shown) VH: EVQLVESGGGLVQPGGSLRLSCAASGFNISYSYIHWVRQAPGKGLEWVASIYSSSGSTSYADSVKGRFTISADTSKNTAYLQMNSLRAEDTAVYYCARGAIDYWGQGTLVTVSS VL: DIQMTQSPSSLSASVGDRVTITCRASQSVSSAVAWYQQKPGKAPKLLIYSASSLYSGVPSRFSGSRSGTDFTLTISSLQPEDFATYYCQQWYSSGHVLITFGQGTKVEIK	3.08	−	−	−	−	++++
Fab-2913: anti-FZD5 Fab with antibody variable region Fv-2913; CDR SEQ ID NOs: 35, 36, 52, 91, 128, 165 (antibody, V domains shown) VH: EVQLVESGGGLVQPGGSLRLSCAASGFNISYSSIHWVRQAPGKGLEWVASIYPYSSSTSYADSVKGRFTISADTSKNTAYLQMNSLRAEDTAVYYCARYGYYGLDYWGQGTLVTVSS VL: DIQMTQSPSSLSASVGDRVTITCRASQSVSSAVAWYQQKPGKAPKLLIYSASSLYSGVPSRFSGSRSGTDFTLTISSLQPEDFATYYCQQWGVSHYLFTFGQGTKVEIK	3.85	−	++	−	++++	++
Fab-2916: anti-FZD5 Fab with antibody variable region Fv-2916; CDR SEQ ID NOs: 35, 36, 55, 94, 131, 167 (antibody, V domains shown) VH: EVQLVESGGGLVQPGGSLRLSCAASGFNISYSSIHWVRQAPGKGLEWVASIYPSYSYTYYADSVKGRFTISADTSKNTAYLQMNSLRAEDTAVYYCARYGYYGMDYWGQGTLVTVSS VL: DIQMTQSPSSLSASVGDRVTITCRASQSVSSAVAWYQQKPGKAPKLLIYSASSLYSGVPSRFSGSRSGTDFTLTISSLQPEDFATYYCQQWYHYPYLITFGQGTKVEIK	4.22	−	++++	−	++++	++++
Fab-2912: anti-FZD5 Fab with antibody variable region Fv-2912; CDR SEQ ID NOs: 35, 36, 51, 90, 127, 164 (antibody, V domains shown) VH: EVQLVESGGGLVQPGGSLRLSCAASGFNISYSYIHWVRQAPGKGLEWVASISSSSGYTSYADSVKGRFTISADTSKNTAYLQMNSLRAEDTAVYYCARTVRGSKKPYFSGWAMDYWGQGTLVTVSS VL: DIQMTQSPSSLSASVGDRVTITCRASQSVSSAVAWYQQKPGKAPKLLIYSASSLYSGVPSRFSGSRSGTDFTLTISSLQPEDFATYYCQQFYFPYLITFGQGTKVEIK	4.49	−	+	++	++++	+++
Fab-2920: anti-FZD5 Fab with antibody variable region Fv-2920; CDR SEQ ID NOs: 35, 36, 59, 98, 135, 170 (antibody, V domains shown) VH: EVQLVESGGGLVQPGGSLRLSCAASGFNISYYYIHWVRQAPGKGLEWVASIYPSSGSTSYADSVKGRFTISADTSKNTAYLQMNSLRAEDTAVYYCARGGMDYWGQGTLVTVSS VL: DIQMTQSPSSLSASVGDRVTITCRASQSVSSAVAWYQQKPGKAPKLLIYSASSLYSGVPSRFSGSRSGTDFTLTISSLQPEDFATYYCQQWFAGALITFGQGTKVEIK	3.37	−	−	−	−	++++
Fab-2914: anti-FZD5 Fab with antibody variable region Fv-2914; CDR SEQ ID NOs: 35, 36, 53, 92, 129, 162 (antibody, V domains shown) VH: EVQLVESGGGLVQPGGSLRLSCAASGFNIYYSYMHWVRQAPGKGLEWVASIYPSSSSTSYADSVKGRFTISADTSKNTAYLQMNSLRAEDTAVYYCARGAMDYWGQGTLVTVSS VL: DIQMTQSPSSLSASVGDRVTITCRASQSVSSAVAWYQQKPGKAPKLLIYSASSLYSGVPSRFSGSRSGTDFTLTISSLQPEDFATYYCQQWYYGSLITFGQGTKVEIK	4.37	−	++	−	++++	++++
Fab-2915: anti-FZD5 Fab with antibody variable region Fv-2915; CDR SEQ ID NOs: 35, 36, 54, 93, 130, 166 (antibody, V domains shown) VH: EVQLVESGGGLVQPGGSLRLSCAASGFNIYYYSMHWVRQAPGKGLEWVASIYSSYGYTSYADSVKGRFTISADTSKNTAYLQMNSLRAEDTAVYYCARGYHYYPYYSGLDYWGQGTLVTVSS VL: DIQMTQSPSSLSASVGDRVTITCRASQSVSSAVAWYQQKPGKAPKLLIYSASSLYSGVPSRFSGSRSGTDFTLTISSLQPEDFATYYCQQAYYHSLITFGQGTKVEIK	4.49	−	++	−	++++	+++
